The target of this assay is complement component 3b (C3b) (human, UniProt P01024 23-667; P01024 749-1663). Kind of assay: SPR. In general terms: In SPR one partner is held on a chip, and binding of the other changes the refractive index at the surface.

One may read the Kd as the concentration at which binding is half-saturated. For orientation: stoichiometry N means a count of units in the complex or per binding partner.

complement component 3b (C3b), sequence (P01024 23-667, chain 1 of 2): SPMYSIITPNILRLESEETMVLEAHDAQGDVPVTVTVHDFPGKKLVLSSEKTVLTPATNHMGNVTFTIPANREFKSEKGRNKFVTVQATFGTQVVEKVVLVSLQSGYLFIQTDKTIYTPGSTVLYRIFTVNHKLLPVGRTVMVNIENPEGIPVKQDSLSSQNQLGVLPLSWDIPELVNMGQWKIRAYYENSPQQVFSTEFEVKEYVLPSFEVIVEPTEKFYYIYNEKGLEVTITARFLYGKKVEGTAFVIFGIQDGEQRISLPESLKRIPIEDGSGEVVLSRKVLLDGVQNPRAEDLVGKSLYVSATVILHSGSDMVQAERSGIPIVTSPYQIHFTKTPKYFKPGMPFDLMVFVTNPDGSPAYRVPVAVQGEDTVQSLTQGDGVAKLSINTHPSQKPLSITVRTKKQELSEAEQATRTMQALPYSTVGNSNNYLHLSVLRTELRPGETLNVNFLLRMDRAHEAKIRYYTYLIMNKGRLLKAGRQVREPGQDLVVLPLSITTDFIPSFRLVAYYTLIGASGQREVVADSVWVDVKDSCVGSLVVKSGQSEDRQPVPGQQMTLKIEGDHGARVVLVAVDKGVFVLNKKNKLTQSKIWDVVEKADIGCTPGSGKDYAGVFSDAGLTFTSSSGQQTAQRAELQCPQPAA
complement component 3b (C3b), sequence (P01024 749-1663, chain 2 of 2): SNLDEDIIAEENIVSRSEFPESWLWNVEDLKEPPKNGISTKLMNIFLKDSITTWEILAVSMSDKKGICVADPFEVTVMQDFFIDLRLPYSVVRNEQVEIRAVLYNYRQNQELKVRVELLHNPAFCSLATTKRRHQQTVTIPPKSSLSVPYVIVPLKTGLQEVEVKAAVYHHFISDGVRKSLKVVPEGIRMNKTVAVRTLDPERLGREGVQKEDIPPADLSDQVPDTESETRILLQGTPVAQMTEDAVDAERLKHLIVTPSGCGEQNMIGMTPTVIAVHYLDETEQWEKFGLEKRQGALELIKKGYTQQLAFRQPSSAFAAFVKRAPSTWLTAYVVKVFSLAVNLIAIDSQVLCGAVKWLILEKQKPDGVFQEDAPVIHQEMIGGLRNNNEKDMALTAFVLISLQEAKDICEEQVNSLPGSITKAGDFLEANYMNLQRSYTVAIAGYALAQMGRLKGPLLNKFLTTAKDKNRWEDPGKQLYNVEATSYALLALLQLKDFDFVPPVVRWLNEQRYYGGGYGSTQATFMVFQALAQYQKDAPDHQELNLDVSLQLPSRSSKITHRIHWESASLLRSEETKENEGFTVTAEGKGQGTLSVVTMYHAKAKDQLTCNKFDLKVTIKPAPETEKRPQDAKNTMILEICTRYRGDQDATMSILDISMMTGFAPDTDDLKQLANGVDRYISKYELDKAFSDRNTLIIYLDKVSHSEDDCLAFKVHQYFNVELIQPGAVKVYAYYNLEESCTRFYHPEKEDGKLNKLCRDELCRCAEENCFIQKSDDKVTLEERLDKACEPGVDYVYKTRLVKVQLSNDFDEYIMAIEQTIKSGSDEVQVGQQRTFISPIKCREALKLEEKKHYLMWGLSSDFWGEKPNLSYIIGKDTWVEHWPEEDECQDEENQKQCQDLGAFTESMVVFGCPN

B1: FH(1–4), recombinant N-terminal four CCP domains (CCP1-4, residues 1–246) of human factor H (domain or fragment, UniProt P08603 19-264, looked up)
chain: EDCNELPPRRNTEILTGSWSDQTYPEGTQAIYKCRPGYRSLGNVIMVCRKGEWVALNPLRKCQKRPCGHPGDTPFGTFTLTGGNVFEYGVKAVYTCNEGYQLLGEINYRECDTDGWTNDIPICEVVKCLPVTAPENGKIVSSAMEPDREYHFGQAVRFVCNSGYKIEGDEEMHCSDDGFWSKEKPKCVEISCKSPDVINGSPISQKIIYKENERFQYKCNMGYEYSERGDAVCTESGWRPLPSCEE
As to B1, binding was put at a Kd of 11 ± 2 µM and the “stoichiometry N” value was found to be 1.

These data come from publication PMC2713992 (Nature immunology, 2009).
